This assay has as its target TAP-tagged wild-type Infected Cell Polypeptide 4 (ICP4) of HSV-1 strain KOS (herpes simplex virus type 1 (HSV-1), strain KOS) (UniProt P08392). The assay can be described thus: pull-down; streptavidin affinity purification of TAP-tagged ICP4 from nuclear extracts of infected Vero cells (3 or 6 hpi), independent samples; biotin eluates analysed by Western blot, in part quantified with a LI-COR Odyssey imager and normalised to ICP4; untagged virus as control. For orientation: Immunoblotting shows a protein as a band on a membrane.
Chain of UniProt P08392 (P08392 whole entry): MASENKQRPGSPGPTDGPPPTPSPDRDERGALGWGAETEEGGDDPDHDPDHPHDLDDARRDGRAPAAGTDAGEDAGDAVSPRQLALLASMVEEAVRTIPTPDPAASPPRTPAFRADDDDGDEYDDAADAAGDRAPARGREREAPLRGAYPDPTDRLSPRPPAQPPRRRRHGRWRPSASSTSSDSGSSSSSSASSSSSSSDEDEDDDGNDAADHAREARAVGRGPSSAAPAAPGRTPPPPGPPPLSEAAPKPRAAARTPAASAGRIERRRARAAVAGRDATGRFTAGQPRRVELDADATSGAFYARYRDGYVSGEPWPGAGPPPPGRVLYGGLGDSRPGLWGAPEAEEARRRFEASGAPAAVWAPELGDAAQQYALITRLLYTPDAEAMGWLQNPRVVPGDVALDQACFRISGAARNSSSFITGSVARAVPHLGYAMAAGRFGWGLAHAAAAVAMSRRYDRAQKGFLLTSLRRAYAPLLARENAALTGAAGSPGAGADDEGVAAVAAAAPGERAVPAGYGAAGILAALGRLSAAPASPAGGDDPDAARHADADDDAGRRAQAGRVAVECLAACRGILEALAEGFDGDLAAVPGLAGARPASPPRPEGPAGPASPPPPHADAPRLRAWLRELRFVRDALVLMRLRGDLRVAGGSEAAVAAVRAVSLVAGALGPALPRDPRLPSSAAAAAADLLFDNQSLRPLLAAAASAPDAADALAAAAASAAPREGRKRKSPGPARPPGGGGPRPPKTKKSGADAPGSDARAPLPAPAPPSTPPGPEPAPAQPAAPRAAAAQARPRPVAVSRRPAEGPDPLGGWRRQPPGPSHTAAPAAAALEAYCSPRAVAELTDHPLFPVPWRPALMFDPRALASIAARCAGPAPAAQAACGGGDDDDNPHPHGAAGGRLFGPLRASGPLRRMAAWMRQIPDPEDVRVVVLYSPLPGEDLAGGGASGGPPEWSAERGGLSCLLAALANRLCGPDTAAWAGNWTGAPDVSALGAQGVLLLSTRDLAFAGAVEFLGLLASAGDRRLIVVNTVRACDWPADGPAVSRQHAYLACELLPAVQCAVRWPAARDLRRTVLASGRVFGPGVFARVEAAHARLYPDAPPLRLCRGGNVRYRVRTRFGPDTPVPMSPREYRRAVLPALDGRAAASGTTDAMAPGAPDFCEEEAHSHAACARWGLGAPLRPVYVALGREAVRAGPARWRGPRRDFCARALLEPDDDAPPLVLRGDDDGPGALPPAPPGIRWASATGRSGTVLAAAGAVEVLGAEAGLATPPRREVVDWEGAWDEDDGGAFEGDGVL

MED1 (natural protein) showed a fold increase of the amount co-purified at 6 hpi against 3 hpi (normalised to ICP4) of 3 fold.

The record behind these values is paper PMC3795685.
